Biological target: Amyloid β (1–40) peptide, unlabeled, monomeric (UniProt P05067 672-711)
Assay: cell-based or functional assay

Sequence of Amyloid β (1–40) peptide, unlabeled, monomeric (P05067 672-711): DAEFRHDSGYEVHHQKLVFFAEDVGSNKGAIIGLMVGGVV

B1: Human wild-type Lipocalin-type prostaglandin D synthase (L-PGDS) (natural protein, UniProt P41222 23-190, looked up)
chain: APEAQVSVQPNFQQDKFLGRWFSAGLASNSSWLREKKAALSMCKSVVAPATDGGLNLTSTFLRKNQCETRTMLLQPAGSLGSYSYRSPHWGSTYSVSVVETDYDQYALLYSQGSKGPGEDFRMATLYSRTQTPRAELKEKFTAFCKAQGFTEDTIVFLPQTDKCMTEQ
modifications: uniformly 15N labeled in the NMR titration with unlabeled Aβ40; unlabeled elsewhere
  IC50 of WT-L-PGDS for Aβ40 aggregation (ThT end-point fluorescence, 50 µM Aβ40, 37 °C): 980 nM
  fold reduction of the primary nucleation rate constant of Aβ40 aggregation with L-PGDS (ThT curves fitted with Amylofit): 14 fold
  fold reduction of the secondary nucleation rate constant of Aβ40 aggregation with L-PGDS (ThT curves fitted with Amylofit): 6 fold

From PMC6715741, “Abundant neuroprotective chaperone Lipocalin-type prostaglandin D synthase (L-PGDS) disassembles the Amyloid-β fibrils” (Scientific Reports, 2019)
